The source of these data is article PMC6862323, “Substitution of Arginine 120 in Human D-Amino Acid Oxidase Favors FAD-Binding and Nuclear Mistargeting” (Frontiers in Molecular Biosciences, 2019).

A word on the Km: it is the substrate concentration at which the rate is half of its maximum. One may read the kcat as the maximal rate divided by the concentration of active sites. Usually kcat/Km stands for the second-order rate constant that governs catalysis at low substrate concentration.

The data set concerns C[C@@H](N)C(=O)O. The experiment in a line: purified protein, by the assay type. The note with it: other: air saturation, 25°C, pH 8.5, 0.2 mM FAD.

R120E hDAAO variant (Homo sapiens; R120E), sequence (chain, as listed by the source R120E R120E): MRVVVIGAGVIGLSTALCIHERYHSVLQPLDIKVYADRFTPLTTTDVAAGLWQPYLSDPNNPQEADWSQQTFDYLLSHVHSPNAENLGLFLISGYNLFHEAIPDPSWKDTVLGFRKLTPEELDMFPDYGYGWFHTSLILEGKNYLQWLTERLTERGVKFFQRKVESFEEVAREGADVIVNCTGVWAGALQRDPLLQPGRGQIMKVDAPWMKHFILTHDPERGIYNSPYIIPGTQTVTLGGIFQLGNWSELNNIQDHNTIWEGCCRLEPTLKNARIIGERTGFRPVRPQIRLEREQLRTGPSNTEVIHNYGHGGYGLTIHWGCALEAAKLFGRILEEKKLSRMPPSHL
R120L hDAAO variant (Homo sapiens; R120L), sequence (chain, as listed by the source R120L R120L): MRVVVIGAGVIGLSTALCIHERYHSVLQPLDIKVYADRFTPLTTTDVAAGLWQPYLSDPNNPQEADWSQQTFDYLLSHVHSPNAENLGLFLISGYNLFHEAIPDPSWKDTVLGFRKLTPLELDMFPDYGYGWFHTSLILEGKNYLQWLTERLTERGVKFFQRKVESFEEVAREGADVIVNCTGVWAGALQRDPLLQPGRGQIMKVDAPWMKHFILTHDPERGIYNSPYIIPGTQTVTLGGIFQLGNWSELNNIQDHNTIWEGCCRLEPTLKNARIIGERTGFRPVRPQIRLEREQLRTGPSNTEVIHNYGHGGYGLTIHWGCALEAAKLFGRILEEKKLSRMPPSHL

In the case of “R120E hDAAO variant (Homo sapiens; R120E)”, the Km is 1400 ± 100 µM, the kcat was 12.6 s⁻¹ and the kcat/Km came out at 8900 M⁻¹ s⁻¹.

Regarding “R120L hDAAO variant (Homo sapiens; R120L)”, the Km is 2000 ± 300 µM, the kcat turned out to be 17.3 s⁻¹ and the kcat/Km stood at 8500 M⁻¹ s⁻¹.
